Numbering of substitutions follows the chain as printed. Values belong to the binder of their own block, whether it stands above or below them.
Target: human EGFR, C-terminal eGFP-tagged, on CHO-K1 cells (human, UniProt P00533 25-1210)
Assay: cell-based or functional assay

B1: GOMP001_bsAb_018 (bispecific antibody, human IgG1, kappa, L234A L235A)
heavy 1: EVQLVESGGDLVQPGRSLRLSCAASGFTFDDCVIHWVRYAPGKGLEWVSGITWNSGRIGYADRVKGRFTISRDNAKNSLYLQMNSLRVEDTALYYCAKEGNYDFWSTYYRGYFDLWGRGTLVTVSSASTKGPSVFPLAPSSKSTSGGTAALGCLVKDYFPEPVTVSWNSGALTSGVHTFPAVLQSSGLYSLSSVVTVPSSSLGTQTYICNVNHKPSNTKVDKKVEPKSCDKTHTCPPCPAPEAAGGPSVFLFPPKPKDTLMISRTPEVTCVVVDVSHEDPEVKFNWYVDGVEVHNAKTKPREEQYNSTYRVVSVLTVLHQDWLNGKEYKCKVSNKALPAPIEKTISKAKGQPRRPRVYTLPPSREEMTKNQVSLVCLVKGFYPSDIAVEWESNGQPENNYKTTPPVLDSDGSFFLYSVLTVDKSRWQQGNVFSCSVMHEALHNHYTQKSLSLSPG
light 1: DIQMTQSPSSLSASVGDRVTITCRASQGIRNDLGWYQRKPGDAPKRLIYAASSLQGGVPLRFSGSGSGTEFTLTISSLQPEDFATYYCLQHNSYPYTFGQGTKLEIKRTVAAPSVFIFPPSDEQLKSGTASVVCLLNNFYPREAKVQWKVDNALQSGNSQESVTEQDSKDSTYSLSSTLTLSKADYEKHKVYACEVTHQGLSSPVTKSFNRGEC
heavy 2: QVQLVQSGAEVKKPGASVKVSCKASGYTFTSHWMHWVRYAPGQGLEWIGEFNPSNGRTNYNEKFKSKATMTVDTSTNTAYMELSSLRSEDTAVYYCASRDYDYDGRYFDYWGRGTLVTVSSASTKGPSVFPLAPSSKSTSGGTAALGCLVKDYFPEPVTVSWNSGALTSGVHTFPAVLQSSGLYSLSSVVTVPSSSLGTQTYICNVNHKPSNTKVDKKVEPKSCDKTHTCPPCPAPEAAGGPSVFLFPPKPKDTLMISRTPEVTCVVVDVSHEDPEVKFNWYVDGVEVHNAKTKPREEQYNSTYRVVSVLTVLHQDWLNGKEYKCKVSNKALPAPIEKTISKAKGQPRRPRVYTLPPSREEMTKNQVSLVCLVKGFYPSDIAVEWESNGQPENNYKTTPPVLDSDGSFFLYSVLTVDKSRWQQGNVFSCSVMHEALHNHYTQKSLSLSPG
light 2: DIQMTQSPSSLSASVGDRVTITCSASSSVTYMYWYQRKPGDAPKLLIYDTSNLASGVPSRFSGSGSGTDYTFTISSLQPEDIATYYCQQWSSHIFTFGQGTKVEIKRTVAAPSVFIFPPSDEQLKSGTASVVCLLNNFYPREAKVQWKVDNALQSGNSQESVTEQDSKDSTYSLSSTLTLSKADYEKHKVYACEVTHQGLSSPVTKSFNRGEC
EC50 CHO-K1 EGFR Low (nM); T cell activation bioassay, luciferase: 0.377 nM | EC50 CHO-K1 EGFR Med (nM); T cell activation bioassay, luciferase: 0.0442 nM

B3: GOMP001_bsAb_020 (bispecific antibody, human IgG1, kappa, L234A L235A)
heavy 1: EVQLVDSGGGLVQPGGSLRLSCSGSGFTFSSYWMSWVRYAPGKGLEWVANIKQDGSQKYYVDRVKGRFTISRDNVKNSLYLQMNSLRVEDTAVYYCARDESSSWYWYFDLWGRGTLVTVSSASTKGPSVFPLAPSSKSTSGGTAALGCLVKDYFPEPVTVSWNSGALTSGVHTFPAVLQSSGLYSLSSVVTVPSSSLGTQTYICNVNHKPSNTKVDKKVEPKSCDKTHTCPPCPAPEAAGGPSVFLFPPKPKDTLMISRTPEVTCVVVDVSHEDPEVKFNWYVDGVEVHNAKTKPREEQYNSTYRVVSVLTVLHQDWLNGKEYKCKVSNKALPAPIEKTISKAKGQPRRPRVYTLPPSREEMTKNQVSLVCLVKGFYPSDIAVEWESNGQPENNYKTTPPVLDSDGSFFLYSVLTVDKSRWQQGNVFSCSVMHEALHNHYTQKSLSLSPG
light 1: DIQMTQSPSTLSASVGDRVTLTCRASQNIVKWLAWYQRKPGDAPKLLIYKASSLESGVPSWFSGSGSGTEFTLTINSLQPDDFATYYCQQYYTYSRTFGQGTKVEIKRTVAAPSVFIFPPSDEQLKSGTASVVCLLNNFYPREAKVQWKVDNALQSGNSQESVTEQDSKDSTYSLSSTLTLSKADYEKHKVYACEVTHQGLSSPVTKSFNRGEC
heavy 2: B1 heavy 2
light 2: B1 light 2
EC50 CHO-K1 EGFR Low (nM); T cell activation bioassay, luciferase: 0.235 nM | EC50 CHO-K1 EGFR Med (nM); T cell activation bioassay, luciferase: 0.0102 nM

B5: GOMP001_bsAb_019 (bispecific antibody, human IgG1, kappa, L234A L235A)
heavy 1: QVQLVQSGAEVKKPGASVKVSCKASGYTFTSHWMHWVRKAPGQGLEWIGEFNPSNGRTNYNEEFKSKATMTVDTSTNTAYMELSSLRSEDTAVYYCASRDYDYDGRYFDYWGQGTLVTVSSASTKGPSVFPLAPSSKSTSGGTAALGCLVADYFPEPVTVSWNSGALTSGVHTFPAVLQSSGLYSLSSVVTVPSSSLGTQTYICNVNHKPSNTKVDEKVEPKSCDKTHTCPPCPAPEAAGGPSVFLFPPKPKDTLMISRTPEVTCVVVDVSHEDPEVKFNWYVDGVEVHNAKTKPREEQYNSTYRVVSVLTVLHQDWLNGKEYKCKVSNKALPAPIEKTISKAKGQPREPQVYTLPPSREEMTDNQVSLTCLVKGFYPSDIAVEWESNGQPENNYKTTPPVLMSDGSFFLASKLTVDKSRWQQGNVFSCSVMHEALHNHYTQKSLSLSPG
light 1: B1 light 2 with D1R, R37D, D41K, E122K, S130R
heavy 2: B3 heavy 1
light 2: B3 light 1
EC50 CHO-K1 EGFR Low (nM); T cell activation bioassay, luciferase: 4.27 nM | EC50 CHO-K1 EGFR Med (nM); T cell activation bioassay, luciferase: 0.257 nM

Results, then the binder that gave them:

EC50 CHO-K1 EGFR Low (nM); T cell activation bioassay, luciferase: 8.34 nM | EC50 CHO-K1 EGFR Med (nM); T cell activation bioassay, luciferase: 1.71 nM
B2: GOMP001_bsAb_023 (bispecific antibody, human IgG1, kappa, L234A L235A)
heavy 1: B5 heavy 1
light 1: B1 light 2 with D1R, R37D, D41K, E122K, S130R
heavy 2: QGQLVESGGGVVQPGRSLRLSCEASGFTFRSYGMHWVRYPPGKGLEWVAIIWYDGGKKYYGDRVKGRFTISRDNPKNTLYLQMNSLRPEDTAVYYCMAYDYSNGFDIWGRGTMVTVSSASTKGPSVFPLAPSSKSTSGGTAALGCLVKDYFPEPVTVSWNSGALTSGVHTFPAVLQSSGLYSLSSVVTVPSSSLGTQTYICNVNHKPSNTKVDKKVEPKSCDKTHTCPPCPAPEAAGGPSVFLFPPKPKDTLMISRTPEVTCVVVDVSHEDPEVKFNWYVDGVEVHNAKTKPREEQYNSTYRVVSVLTVLHQDWLNGKEYKCKVSNKALPAPIEKTISKAKGQPRRPRVYTLPPSREEMTKNQVSLVCLVKGFYPSDIAVEWESNGQPENNYKTTPPVLDSDGSFFLYSVLTVDKSRWQQGNVFSCSVMHEALHNHYTQKSLSLSPG
light 2: DIVMTQTPLSSPVTLGQPASISCRSSQSFVHSDGSTYLSWLQRRPGDPPRLLIYKISNRFSGVPDRFSGRGAGTDFTLKISRVEAEDVGIYYCMQNTQFPYTFGQGTKLEIKRTVAAPSVFIFPPSDEQLKSGTASVVCLLNNFYPREAKVQWKVDNALQSGNSQESVTEQDSKDSTYSLSSTLTLSKADYEKHKVYACEVTHQGLSSPVTKSFNRGEC

EC50 CHO-K1 EGFR Low (nM); T cell activation bioassay, luciferase: 0.245 nM | EC50 CHO-K1 EGFR Med (nM); T cell activation bioassay, luciferase: 0.122 nM
B4: GOMP001_bsAb_024 (bispecific antibody, human IgG1, kappa, L234A L235A)
heavy 1: B2 heavy 2
light 1: B2 light 2
heavy 2: B1 heavy 2
light 2: B1 light 2

EC50 CHO-K1 EGFR Low (nM); T cell activation bioassay, luciferase: 0.271 nM | EC50 CHO-K1 EGFR Med (nM); T cell activation bioassay, luciferase: 0.0226 nM
B6: GOMP001_bsAb_029 (bispecific antibody, human IgG1, kappa, L234A L235A)
heavy 1: B5 heavy 1
light 1: B1 light 2 with D1R, R37D, D41K, E122K, S130R
heavy 2: QVQLVQSGAEVKKPGASVKVSCKASGYTVTGYYMHWVRYAPGQGLEWMGWINPNSGGTNFAQRFQGRVTMTRDTSISTFYMDLNRLRSDDTAVYYCARGGAPVSYWFFDLWGRGTLVTVSSASTKGPSVFPLAPSSKSTSGGTAALGCLVKDYFPEPVTVSWNSGALTSGVHTFPAVLQSSGLYSLSSVVTVPSSSLGTQTYICNVNHKPSNTKVDKKVEPKSCDKTHTCPPCPAPEAAGGPSVFLFPPKPKDTLMISRTPEVTCVVVDVSHEDPEVKFNWYVDGVEVHNAKTKPREEQYNSTYRVVSVLTVLHQDWLNGKEYKCKVSNKALPAPIEKTISKAKGQPRRPRVYTLPPSREEMTKNQVSLVCLVKGFYPSDIAVEWESNGQPENNYKTTPPVLDSDGSFFLYSVLTVDKSRWQQGNVFSCSVMHEALHNHYTQKSLSLSPG
light 2: DIQMTQSPSSLSASVGDRVTITCRASQSISRYLNWYQRKPGDAPKVLIYNTSSLKSGVPSRFSGSGSGTDFTLTISSLQPEDFGTFYCQQSHSTPFTFGPGTKVDIKRTVAAPSVFIFPPSDEQLKSGTASVVCLLNNFYPREAKVQWKVDNALQSGNSQESVTEQDSKDSTYSLSSTLTLSKADYEKHKVYACEVTHQGLSSPVTKSFNRGEC

— patent publication US20230295310A1 (ABCELLERA BIOLOGICS, published 2023)
